Assay results as given in publication PMC8669144, “Imaging of Glioblastoma Tumor-Associated Myeloid Cells Using Nanobodies Targeting Signal Regulatory Protein Alpha” (Frontiers in Immunology, 2021).
Residue numbers refer to the chain shown, from its start.

T1: recombinant ligand binding domain of mouse SIRPα (mSIRPα) (mouse)
T1 chain: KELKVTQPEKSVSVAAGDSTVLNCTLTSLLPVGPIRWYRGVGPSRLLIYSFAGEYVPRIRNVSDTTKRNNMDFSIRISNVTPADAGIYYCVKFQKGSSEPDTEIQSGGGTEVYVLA

B1: bivalent anti-SIRPα Nb15 (pHEN25 construct, dimerised through a cysteine) (VHH)
VHH: EVQLQESGGGSVQAGGSLRLSCATSGLTYSAYCMGWFRQAPGKGRETVAQINLGDGDTYYADSVKGRFAISQDNAKNTVHLLMNGLKPEDTAIYYCAGSDHMCAKWHYWGQGTQVTVSS
modifications: 99mTc tricarbonyl at the His6-tag (in the radioligand binding assay only)
B2: anti-mSIRPα nanobody Nb15, HA- and His6-tagged (pMECS) (VHH)
VHH: B1 VHH with E1Q
notes: An alpaca and two dromedaries were immunised; also called clone 15; source: E. coli WK6, periplasmic extraction, purified (IMAC, SEC)
B3: anti-mSIRPα nanobody Nb54, HA- and His6-tagged (pMECS) (VHH)
VHH: QVQLQESGGGSVQAGGSLRLSCSASGHMYGSVIGWFRQAPGKERVGVAAIYTYAGSEYYADSVKGRFTVSQDTQDNAKNTVYLQMSSLNVEDTAMYYCAVGFPLGRLTTVRTLASNEYKYWGQGTQVTVSS
notes: also called clone 54; source: E. coli WK6, periplasmic extraction, purified (IMAC, SEC)
B4: anti-mSIRPα nanobody Nb89, HA- and His6-tagged (pMECS) (VHH)
VHH: QVQLQESGGGLVQPGGSLRLSCAASGFAFSRNSMRWVRQAPGKGLEWVSSISSDGKYTYYTDSVKGRFAISRDNANNTLYLQMNSLKSEDTALYYCSTGGAPASQGTQVTVSS
notes: also called clone 89; source: E. coli WK6, periplasmic extraction, purified (IMAC, SEC)
B5: anti-mSIRPα nanobody Nb54 as used in SPR and epitope binning (VHH)
VHH: B3 VHH
notes: source: E. coli WK6, periplasmic extraction, purified (IMAC, SEC)
B6: anti-mSIRPα nanobody Nb89 as used in SPR and epitope binning (VHH)
VHH: B4 VHH
notes: as for B5
B7: monovalent anti-mSIRPα nanobody Nb15, His6-tagged (VHH)
VHH: B1 VHH with E1Q
modifications: 99mTc tricarbonyl at the His6-tag (in the radioligand binding assay only)
B8: bivalent anti-SIRPα Nb15 (pHEN25 construct, dimerised through a cysteine) (VHH)
VHH: B1 VHH
notes: as the VHH of m7 (Nb15); fourteen amino acid long linker and a cysteine after the His6 tag (pHEN25); The cysteine allows dimerization; The order of His6 tag, linker and cysteine is worded loosely; also called bivalent Nb15; bivalent construct of Nb15; source: E. coli WK6 (pHEN25), periplasmic extraction, purified (IMAC, SEC); not shown: His6, C-terminal, kept
B9: monovalent anti-mSIRPα nanobody Nb15, His6-tagged (VHH)
VHH: B1 VHH with E1Q
notes: both carry a C-terminal His6; also called monovalent Nb15; anti-SIRPα Nb15; source: E. coli WK6, periplasmic extraction, purified (IMAC, SEC); not shown: His6, C-terminal, kept
B10: Nb 1 (VHH)
VHH: QVQLQESGGGSVQAGGSLRLSCSASGHMYGSVIGWFRQAPGKEREGVAAIYTYDGSEYYADSVKGRFTVSQDTQDNAKNTVYLQMSSLNVEDTAMYYCAVGFPLGRLTTVRVLASNEYKYGTQVTVSS
B11: Nb 35 (VHH)
VHH: QVQLQESGGGSVQAGGSLRLSCAASGYSYSSTCMAWFRQVPGKEREGVASINNSGTATYYADSVKGRFTISRDNAKNTLYLLMDNLKPEDTAIYYCAASLRRGQDCLGAIDYWGQGTQVTVSS
B12: Nb 12 (VHH)
VHH: QVQLQESGGGSVQAGGSVKLSCATSGLTYSAYCMGWFRQAPGKGRETVAQINLGDGDTYYADSVKGRFTISLDNARNTVYLQMNSLKPEDTAIYYCAATYSSRCASFGYWGQGTQVTVSS
B13: Nb 26 (VHH)
VHH: QVQLQESGGGSVQAGGSLRLSCATSGLTYTAYCMGWFRQAPGKGRETVAQINLGDGDTYYADSVKGRFAISQDNAKNTVYLLMNSLQPEDTAIYYCATTDGRCQKWQYWGQGTQVTVSS
B14: Nb 42 (VHH)
VHH: QVQLQESGGGSVQAGGSLRLSCAASGFTYSNYCMAWFRQAPGKERESVAQINNNDGDTYYAASVKGRFTISQDNAKNPVYLQMDSLKPEDTAMYYCAASDSRCLEYKYWGQGTQVTVSS
B15: Nb 47 (VHH)
VHH: QVQLQESGGGSVQAGGSLRLSCAASGFTYSLYCMGWFRQAPGKEREKVAEMDKSSGDTDYADSVKGRFTISQDNAKNTVYLMMNSLKPEDTAIYYCAATGYRCQGYNAWGQGTQVTVSS
B16: Nb 52 (VHH)
VHH: QVQLQESGGGSVQAGGSLRLSCAASGFTYSNYCMAWLRQAPGKERESVAQININDGDTYYAASVKGRFTISQDNAKNTVYLMMNSLKPEDTAIYYCAATGYGCQGYNAWGQGTQVTVSS
B17: Nb 53 (VHH)
VHH: QVQLQESGGGSVQAGGSLRLSCAASGYTYSDYCMGWFRQAPGKEREVVAEINIVDGDTYYADSVKGRFTISQDNAKNTVYLRMNSLKPDDTAIYVCAATGRRCQGYNSWGQGTQVTVSS
B18: Nb 3 (VHH)
VHH: QVQLQESGGGSVQAGGSLRLSCAAFGFTYSNYCVTWFRQAPGKERERVASIDRSNGDTLYTESVKGRFTISQDNAKNTVSLVMNSLKPEDTAIYYCAATDRYCADWRTWGQGTQVTVSS
B19: Nb 25 (VHH)
VHH: QVQLQESGGGSVQAGGSLRLSCAASGHSFTLDCMGWFRQAPGKERESVAEINMYSGNTYYADSVKGRFTISRDSAKSTVNLQMNSLKPEDTAIYFCAAAPTCARWDYRGQGTQVTVSS
B20: Nb 33 (VHH)
VHH: QVQLQESGGGLVQPGGSLRLSCAASGFTFSSYFMSWVRQAPGKGLEWVSGINSDGSMTYYLDSVKGRFTMSRDNAKNTLYLEMNSLKSEDTALYYCALRGVFSDYALHSQGTQVTVSS
B21: Nb 75 (VHH)
VHH: B20 VHH with G16D, G26E, T28A, S53T, L61S, M70I, E82Q, A97V, H108Q
B22: Nb 92 (VHH)
VHH: QVQLQESGGGSVQAGGSLRLSCAASGYISSTSYVGWFRQAPGKEREKVAEARSGGDYTWYADSVKGRFTISQDNAKNTVYLQMNSLKPEDTAIYYCAAGEFGGPYNNWGQGTQVTVSS

Molecular target: T1, recombinant ligand binding domain of …
Assay: SPR
Conditions: not given
In the case of B1, the koff is reported as 0.00733 s⁻¹.

Each binder was assayed against T2, mouse SIRPα natively expressed on RAW 264.7 macrophages (Mus musculus, endogenous in RAW 264.7 …, UniProt P97797) (assay: flow cytometry on cells; 1 µg purified nanobody with 2 x 10^5 RAW 264.7 cells, 4°C, 1 h; detected with AF488 anti-HA antibody; threshold triple ΔMFI of the non-targeting BabA Nb19). Conditions: one partner purified.
T2 construct: also called native murine SIRPα; cell-membrane mSIRPα; source: endogenous, on RAW 264.7 cells
B2: binds. B3: binds. B4: binds.

Molecular target: T1, recombinant ligand binding domain of …
Assay: SPR
Conditions: not given
Remark: another data set of the same source
For B5, the Kd was 354 nM. B6 showed a Kd of 6.9 nM. B7 was tested, and the Kd was 49.4 nM.

Molecular target: T1, recombinant ligand binding domain of …
Assay: SPR
Conditions: not given
Remark: another data set of the same source
B7 showed a Kd of 109 nM. B1 showed a Kd of 57.4 nM.

Molecular target: T1, recombinant ligand binding domain of …
Assay: SPR
Conditions: not given
Remark: another data set of the same source
B5 showed a koff of 0.221 s⁻¹. For B6, the koff was 0.0087 s⁻¹. B7 was tested, and the koff was 0.00809 s⁻¹.

Each binder was assayed against T2, mouse SIRPα natively expressed on RAW … (assay: radioligand binding; 99mTc-labeled nanobodies at 2, 20 and 200 nM on adherent RAW 264.7 cells, 1 h, 4°C; aspecific binding with 100x molar excess of unlabeled Nb). Conditions: one partner purified.
B8: binds. B9: binds.

Each binder was assayed against T3, recombinant ligand binding domain of mouse SIRPα (mSIRPα) (Mus musculus, strain  …, UniProt P97797) (assay: not given). Conditions: not given.
T3 sequence (P97797 whole entry, looked up, the tested form may be a part): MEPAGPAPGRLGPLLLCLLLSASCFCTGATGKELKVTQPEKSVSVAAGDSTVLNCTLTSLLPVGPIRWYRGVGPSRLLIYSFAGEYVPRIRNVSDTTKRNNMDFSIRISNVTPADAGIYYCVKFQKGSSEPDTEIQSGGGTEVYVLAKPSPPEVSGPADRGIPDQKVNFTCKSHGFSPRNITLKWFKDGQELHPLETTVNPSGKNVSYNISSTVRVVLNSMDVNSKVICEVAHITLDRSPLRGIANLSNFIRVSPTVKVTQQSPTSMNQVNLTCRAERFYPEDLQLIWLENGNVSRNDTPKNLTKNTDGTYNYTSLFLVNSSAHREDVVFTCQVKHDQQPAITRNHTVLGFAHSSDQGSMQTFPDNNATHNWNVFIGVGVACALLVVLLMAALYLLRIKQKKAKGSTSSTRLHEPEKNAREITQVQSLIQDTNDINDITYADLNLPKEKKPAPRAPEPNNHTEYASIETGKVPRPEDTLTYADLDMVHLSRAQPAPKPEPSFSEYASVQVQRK
B10: binds. B11: binds. B12: binds. B13: binds. B14: binds. B15: binds. B16: binds. B17: binds. B18: binds. B19: binds. B20: binds. B21: binds. B22: binds.

What follows are binders tested against T3, recombinant ligand binding domain of … (assay: SPR; Biacore T200; recombinant antigen immobilised by amine coupling on a CM5 chip; nanobodies injected in 2-fold dilutions from 500 to 1.95 nM; 25°C; HBS (20 mM HEPES pH 7.4, 150 mM NaCl, 0.005% Tween-20, 3.4 mM EDTA); 1:1 binding model). Conditions: both partners purified.
B5: binds. B6: binds. B8: binds. B9: binds.
